Measured values reported in PMC11098746 (2024).

Key:
Experiment in all cases: AVEXIS screen signal:noise (double-corrected)
[1] = biological target: T1, ADP315
T1 chain: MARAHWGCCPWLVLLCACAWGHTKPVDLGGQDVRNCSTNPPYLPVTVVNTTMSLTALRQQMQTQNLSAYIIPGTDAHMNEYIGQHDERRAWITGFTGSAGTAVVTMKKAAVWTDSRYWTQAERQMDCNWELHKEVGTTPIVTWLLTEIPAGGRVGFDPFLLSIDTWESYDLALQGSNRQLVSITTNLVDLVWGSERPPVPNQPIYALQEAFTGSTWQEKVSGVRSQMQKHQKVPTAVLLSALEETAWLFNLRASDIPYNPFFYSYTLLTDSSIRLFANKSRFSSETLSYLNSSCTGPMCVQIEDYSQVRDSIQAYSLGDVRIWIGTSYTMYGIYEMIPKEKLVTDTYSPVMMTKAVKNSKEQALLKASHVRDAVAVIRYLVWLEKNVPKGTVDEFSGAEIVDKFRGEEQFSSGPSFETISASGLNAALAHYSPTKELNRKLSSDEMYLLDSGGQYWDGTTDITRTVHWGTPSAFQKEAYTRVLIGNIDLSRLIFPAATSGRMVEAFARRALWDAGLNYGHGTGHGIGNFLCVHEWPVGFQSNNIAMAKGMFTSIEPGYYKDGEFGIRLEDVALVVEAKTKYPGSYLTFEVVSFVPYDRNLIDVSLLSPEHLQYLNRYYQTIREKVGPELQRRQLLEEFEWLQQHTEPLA

[2] = biological target: T2, ADP133
T2 chain: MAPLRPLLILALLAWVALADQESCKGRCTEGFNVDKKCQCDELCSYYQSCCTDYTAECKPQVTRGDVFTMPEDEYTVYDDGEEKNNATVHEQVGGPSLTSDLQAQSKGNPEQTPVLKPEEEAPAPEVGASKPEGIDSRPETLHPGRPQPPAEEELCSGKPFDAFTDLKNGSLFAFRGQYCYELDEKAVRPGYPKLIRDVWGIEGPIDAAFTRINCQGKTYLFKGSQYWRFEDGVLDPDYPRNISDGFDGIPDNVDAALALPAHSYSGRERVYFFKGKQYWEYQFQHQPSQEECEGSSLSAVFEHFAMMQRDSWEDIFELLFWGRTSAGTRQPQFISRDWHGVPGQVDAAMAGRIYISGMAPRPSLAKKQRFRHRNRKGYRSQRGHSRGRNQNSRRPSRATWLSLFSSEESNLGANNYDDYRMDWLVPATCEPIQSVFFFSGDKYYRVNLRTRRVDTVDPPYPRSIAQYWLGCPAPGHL

[3] = biological target: ADP323
[4] = biological target: T3, ADP103
T3 chain: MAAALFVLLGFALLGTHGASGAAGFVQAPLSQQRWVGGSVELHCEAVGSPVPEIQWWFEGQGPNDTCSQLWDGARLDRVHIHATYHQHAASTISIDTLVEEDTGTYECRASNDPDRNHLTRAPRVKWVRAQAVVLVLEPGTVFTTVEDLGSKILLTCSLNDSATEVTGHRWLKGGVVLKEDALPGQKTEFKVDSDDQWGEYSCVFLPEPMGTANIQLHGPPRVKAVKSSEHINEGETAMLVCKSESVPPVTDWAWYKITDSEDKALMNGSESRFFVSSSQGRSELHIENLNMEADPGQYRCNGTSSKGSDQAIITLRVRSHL

[5] = biological target: T4, ADP150
T4 chain: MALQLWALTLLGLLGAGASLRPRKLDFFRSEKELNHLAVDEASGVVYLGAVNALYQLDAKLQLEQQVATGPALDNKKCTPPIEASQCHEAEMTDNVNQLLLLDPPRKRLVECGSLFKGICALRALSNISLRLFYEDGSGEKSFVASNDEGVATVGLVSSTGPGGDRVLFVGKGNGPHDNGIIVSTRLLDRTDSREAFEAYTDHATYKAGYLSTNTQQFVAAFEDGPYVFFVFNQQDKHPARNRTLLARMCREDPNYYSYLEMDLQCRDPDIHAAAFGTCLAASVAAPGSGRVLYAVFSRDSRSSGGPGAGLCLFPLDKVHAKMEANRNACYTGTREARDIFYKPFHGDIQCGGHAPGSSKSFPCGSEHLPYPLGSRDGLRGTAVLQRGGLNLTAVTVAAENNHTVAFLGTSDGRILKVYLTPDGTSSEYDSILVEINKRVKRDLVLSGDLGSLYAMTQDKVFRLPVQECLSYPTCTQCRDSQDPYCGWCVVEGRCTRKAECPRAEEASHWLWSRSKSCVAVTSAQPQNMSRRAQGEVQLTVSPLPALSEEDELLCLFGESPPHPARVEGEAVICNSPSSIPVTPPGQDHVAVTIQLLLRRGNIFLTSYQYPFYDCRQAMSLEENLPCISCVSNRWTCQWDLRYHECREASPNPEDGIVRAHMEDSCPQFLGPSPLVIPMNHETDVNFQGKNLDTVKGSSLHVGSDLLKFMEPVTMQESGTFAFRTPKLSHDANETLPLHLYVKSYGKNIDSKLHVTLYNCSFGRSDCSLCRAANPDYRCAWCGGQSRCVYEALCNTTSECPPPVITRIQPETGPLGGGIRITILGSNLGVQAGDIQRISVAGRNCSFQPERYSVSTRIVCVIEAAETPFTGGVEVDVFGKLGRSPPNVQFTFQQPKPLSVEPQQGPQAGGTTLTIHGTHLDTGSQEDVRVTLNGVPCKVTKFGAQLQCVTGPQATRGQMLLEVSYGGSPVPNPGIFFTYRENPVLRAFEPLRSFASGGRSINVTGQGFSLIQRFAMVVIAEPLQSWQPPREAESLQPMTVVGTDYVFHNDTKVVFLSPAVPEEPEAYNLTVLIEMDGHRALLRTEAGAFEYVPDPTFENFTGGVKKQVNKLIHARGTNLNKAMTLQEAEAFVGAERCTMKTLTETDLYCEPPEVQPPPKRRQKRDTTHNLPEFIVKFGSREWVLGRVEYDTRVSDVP

[6] = biological target: T5, ADP372
T5 chain: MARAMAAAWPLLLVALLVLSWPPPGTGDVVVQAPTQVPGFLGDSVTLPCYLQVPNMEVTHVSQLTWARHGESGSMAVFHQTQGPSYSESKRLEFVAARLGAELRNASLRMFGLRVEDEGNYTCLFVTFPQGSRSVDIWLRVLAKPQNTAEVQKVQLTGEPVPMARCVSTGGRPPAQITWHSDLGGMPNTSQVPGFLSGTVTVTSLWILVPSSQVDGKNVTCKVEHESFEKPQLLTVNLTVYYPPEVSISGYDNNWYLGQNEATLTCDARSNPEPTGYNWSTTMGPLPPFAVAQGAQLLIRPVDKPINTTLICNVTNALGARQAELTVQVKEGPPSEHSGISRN

[7] = biological target: ADP112
[8] = biological target: ADP110

B1: ADP173 (protein)
chain: EVESSDSTSFLNLISGQSSSNSDDTVSSSDSRGVVASVSGTVDSDVSRTDSTGNVNSKNSELSETRQNSVEQNNNANSADNSIKIKSAFLKENVGVKITGPCDEGFGLVMVPHIIINVDTRNTDIQLGKKSSEINYGIKLRKKGKDEYEEKVGIDLLKNVCETGKNFKFVAYIKGDELIIKWKVIEEGNIPIDIKKFKIKRMSPPITSIQVFSSMSDEKSFVLENKNYVVTNNMPEKCEALATNCFLSGNIDIEKCYQCSLLVENDAKSDVCYNFISRENKEKLNEERFKVKGSTEYEESVESELKGAIDLLISSFYKSDGENGENVLISFEDLNSALEDDIINFCSLLKLVDLSGTFMNHQIGTTADAFNNIVKLLKEHKEEDEFVLRTKLRNPALCMKNVDDWVKSRCGLLTSDDSYVVIKKNSDTNGKNENNEANDEEYDGVIDLSTNENGNVKSIQFNDDIYCNDDYCNRWKNENNCISKIGVEDQGNCASSWAFASKLHFETLRCMKGYDHLGISALYLTNCAKGKISKRCTEGGNPAEFLEIVSNSGFLPTEFDYPYFYALVENSCPSGLNKWINLWEDVKLFDYKYEPNSIGSKGYSVYKSEMFKDNMDEYVKMIKSEIKNKGSVIAYINAQSVLTYDFNGKNILNMCGSKTTDHSINVIGYGHYKNKEGEEKSYWLVRNSWGYYWGDEGNFKVDMYGPSNCNYHFINTVLVFNIDIPMMNNNENNKKGLYNYFPKYTHEFYHNFYDQNFGSDNKISLINSNGANKNDVNNAYTVHGQSGETEVQPSQLRSTANQDSNRGAVTSDPLRTQPETTSTSVKKMDVFQVLKHVKNSKIKVGLIKYDNDDEIGAHHSCTRAYSFDPEKYDECVEFCRKNWEQCKDKPSPGFCLTKLDESKGCFFCYV
modifications: bait human Fc-tagged dimer; N-glycosylation sequons mutated in Plasmodium baits
- binding score [1]: 5.31
- binding score [2]: 6.59
- binding score [3]: 7.35
- binding score [4]: 7.09

B2: ADP178 (protein)
chain: SDTFRVFEDFDVRRKNKIWCCNLNHEKSYFHNKAINTAYKNRVLKESILLNLDLDMKKYKDNIITRKKTPENIYKEIYENNYEMKYDEDIPNNMAEEKRDEKEVIEHLEIDEKNGKQYKSDINKPVSLSHLKQYKNIYVNNNNKINKKKSIDKHLPSYNLERKNNKYLNFLLVDNRNEAYTFMVPMKFYINHEMYNIADEEYNKLMEDNSVDVYLNNILVEYKYENFEIKEGEVDGEVEGEGEVEGEVEGEVKGKVVEGIENNMNEEEKYNKDNKDKENQINSNGQDENTEFQENDNNDAVIMKYT
modifications: bait human Fc-tagged dimer; N-glycosylation sequons mutated in Plasmodium baits
- binding score [5]: 8.31
- binding score [4]: 10.2
- binding score [6]: 5.47

B3: ADP189 (protein)
chain: NNIAHKEDDCGASELAIKKLQELKKFELDILKDFIKKDTDHTDMYKRYHCISSDFLKNTKQEDKKEDNYAKKEDKKDIENSANYIINNKNEKISFINKIISFVGMWNYNKYGNNIQESKNKINIYNNNNNKAENELLYNKEDYTNHIPTNENPNSYMQLSAFNLAKKSMFLGGKDNAAQNFEVGNYGSFYMIFGARNTDYPWACSCDTLQLEEYKEKKRSYVLCSNQLDMSIQNSDLFCNPKN
modifications: bait human Fc-tagged dimer; N-glycosylation sequons mutated in Plasmodium baits
- binding score [7]: 7.26
- binding score [8]: 34.1
